# Legend:
# [1] = target: TNH αβγ trimer (Streptomyces rimosus) (UniProt B6CWJ3); experiment: native MS
# [2] = target: Toyocamycin nitrile hydratase (TNH) α subunit (Streptomyces rimosus) (UniProt B6CWJ3); experiment: native MS
Substance,stoichiometry N [1],abundance of the αβ dimer among the SID products (αβγ trimer = 100%) [2] [%]
TNH αβγ trimer (from UniProt B6CWJ3 1-195) (complex),2,
Toyocamycin nitrile hydratase (TNH) β subunit (natural protein),,32
